Measurements reported in patent publication CN114409782A (HUAI SHANGHAI BIOMEDICINE LTD COMPANY, dated 2022).
Positions count from the first letter of the chain named. Each block holds one binder with its values, some of them ahead of it.

Target: T1, IL13Ra2抗原 (in solution, Biacore) (UniProt Q14627 27-343, limits assumed)
T1 construct: also called IL13Rα2; 白介素13受体α2
T1 sequence (looked up): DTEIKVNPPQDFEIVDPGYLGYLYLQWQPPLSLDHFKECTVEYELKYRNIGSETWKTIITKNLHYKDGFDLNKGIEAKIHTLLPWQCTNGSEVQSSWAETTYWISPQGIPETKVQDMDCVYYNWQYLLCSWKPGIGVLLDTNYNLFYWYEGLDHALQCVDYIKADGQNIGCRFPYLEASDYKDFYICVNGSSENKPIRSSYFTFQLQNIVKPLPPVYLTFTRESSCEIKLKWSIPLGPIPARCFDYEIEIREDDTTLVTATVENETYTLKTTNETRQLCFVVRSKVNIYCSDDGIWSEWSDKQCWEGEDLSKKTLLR
Assay: SPR (Biacore), antibody fixed on chip, IL13Ra2 in solution

Kd: 32.4 nM | koff: 0.00066 s⁻¹ | kon: 65400 M⁻¹ s⁻¹
B1: 抗IL13Ra2纳米抗体VHH-7 (VHH-mIgG2a Fc) (Fc fusion)
chain: QVQLVESGGGLAHPGGRLRVTCTASGANLKNYAVGWFRQRPGKQREEVACLRVRYANTNKAPSVRERVHVFREENNNLVYMLMSDLTPEDTGIYYCAARPQQPSADCSLLANDYDNWGQGIQVTVSE
notes: not shown: mouse IgG2a Fc tag from vector C-4pCP.Stuffer-mCg2a-FC

Kd: 16.1 nM | koff: 0.00156 s⁻¹ | kon: 55300 M⁻¹ s⁻¹
B2: 抗IL13Ra2纳米抗体VHH-1 (VHH-mIgG2a Fc) (Fc fusion)
chain: QVQLVESGGGLVQPGGSLRLSCAASGFTLDYYAIAWFRQAPGKRREGVSCISSSEGSTNYADSVKGRFTISRDNAKNTVYLQMNSLKPEDTAVYYCAADSTGRCWARPLYEYDYRGQGTQVTVSS
notes: as for B1

Kd: 16.6 nM | koff: 0.00433 s⁻¹ | kon: 68300 M⁻¹ s⁻¹
B3: 抗IL13Ra2纳米抗体VHH-13 (VHH-mIgG2a Fc) (Fc fusion)
chain: B2 chain with L11S, P14A, A23T, A24S, G26R
notes: as for B1
